Data as given in US5503975, “Mechanism based inhibitors of DNA methyltransferase” (City of Hope).

Molecular target: DNA (cytosine-5) methyltransferase (Homo sapiens, UniProt P26358 P26358:1-1616)
Test: tritiated AdoMet methyl transfer, 37 C, HEPES pH 7.0, 50 mM NaCl, 75 uM spermine; methyl at short arm end stimulates rate
Settings: tags: none; purified from human placenta (partially purified/crude preparation for the covalent complexes); gapped foldback with L5 linker loop
Method: For the determination of initial velocities with oligodeoxynucleotide substrates, the enzyme was dialyzed for 3 hours in a Hoefer microdialyzer (Health Products Inc., Rockford, Ill.) against 38 mM glycine, 17% v/v glycerol, 5 mM Tris, 10 mM β-mercaptoethanol, pH 7.8 at 4° C. The final reaction volume of 100 μl contained: 0.4 μg total DNA, 50 mM HEPES pH 7.0, 50 mM NaCl, 2 mM DTT, 75 μM Spermine, 10% v/v glycerol and […] [^3H]AdoMet (Amersham, 15 Ci/mmole). Reaction mixtures were preincubated at 37° C. for 15 minutes before the addition of 44 U of DNA methyltransferase to initiate the reaction. The reaction rate was linear under these conditions for 30 minutes. After 20 minutes of incubation, the reactions were stopped by the addition of 5 ml of cold TCA (5% w/v TCA containing 5 mM potassium pyrophosphate). Tritium incorporated into TCA insoluble DNA was determined as previously described (Smith, S. S., supra).

Sequence of DNA (cytosine-5) methyltransferase (P26358 whole entry, one chain of several): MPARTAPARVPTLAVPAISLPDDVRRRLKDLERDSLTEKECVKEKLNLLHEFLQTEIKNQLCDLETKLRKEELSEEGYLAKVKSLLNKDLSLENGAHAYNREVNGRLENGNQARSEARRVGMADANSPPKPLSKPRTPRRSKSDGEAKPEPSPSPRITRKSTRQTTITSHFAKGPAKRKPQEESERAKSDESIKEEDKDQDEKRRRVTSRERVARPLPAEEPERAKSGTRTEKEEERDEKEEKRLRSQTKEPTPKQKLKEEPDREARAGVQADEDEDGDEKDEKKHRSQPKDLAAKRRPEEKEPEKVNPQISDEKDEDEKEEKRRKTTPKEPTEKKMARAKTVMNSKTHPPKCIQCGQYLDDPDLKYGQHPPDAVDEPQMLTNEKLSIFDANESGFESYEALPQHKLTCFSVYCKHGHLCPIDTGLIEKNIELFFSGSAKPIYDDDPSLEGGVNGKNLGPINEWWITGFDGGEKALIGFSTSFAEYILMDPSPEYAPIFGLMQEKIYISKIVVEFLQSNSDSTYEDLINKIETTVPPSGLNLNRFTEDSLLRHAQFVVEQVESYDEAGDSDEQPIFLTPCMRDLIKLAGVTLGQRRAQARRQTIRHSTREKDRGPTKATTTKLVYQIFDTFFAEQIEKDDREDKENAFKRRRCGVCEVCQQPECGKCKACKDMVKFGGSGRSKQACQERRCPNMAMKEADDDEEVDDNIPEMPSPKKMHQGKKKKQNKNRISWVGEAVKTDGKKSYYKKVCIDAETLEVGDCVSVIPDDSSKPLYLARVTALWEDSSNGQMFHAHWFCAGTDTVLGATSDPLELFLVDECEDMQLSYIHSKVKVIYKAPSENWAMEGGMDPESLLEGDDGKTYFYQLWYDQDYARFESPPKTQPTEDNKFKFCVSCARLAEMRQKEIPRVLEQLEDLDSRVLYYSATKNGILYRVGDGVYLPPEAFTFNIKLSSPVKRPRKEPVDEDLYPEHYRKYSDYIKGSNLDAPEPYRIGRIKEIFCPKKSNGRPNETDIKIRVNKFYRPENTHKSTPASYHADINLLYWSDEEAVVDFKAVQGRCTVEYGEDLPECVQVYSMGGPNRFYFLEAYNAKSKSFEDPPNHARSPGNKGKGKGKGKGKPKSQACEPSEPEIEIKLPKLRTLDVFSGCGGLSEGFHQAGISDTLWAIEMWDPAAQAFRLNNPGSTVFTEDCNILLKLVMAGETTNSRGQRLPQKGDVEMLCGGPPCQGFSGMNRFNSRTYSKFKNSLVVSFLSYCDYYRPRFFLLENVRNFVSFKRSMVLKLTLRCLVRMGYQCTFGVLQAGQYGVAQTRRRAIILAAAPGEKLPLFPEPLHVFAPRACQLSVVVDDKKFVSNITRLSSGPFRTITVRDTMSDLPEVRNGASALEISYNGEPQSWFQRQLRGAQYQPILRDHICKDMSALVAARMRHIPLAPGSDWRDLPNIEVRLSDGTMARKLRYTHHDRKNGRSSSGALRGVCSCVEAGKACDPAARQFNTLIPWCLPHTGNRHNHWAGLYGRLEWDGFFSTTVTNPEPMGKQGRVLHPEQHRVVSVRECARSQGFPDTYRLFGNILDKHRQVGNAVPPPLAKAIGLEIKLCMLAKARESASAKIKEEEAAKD

B1: 48L-1 (structured_DNA)
DNA: TCGAGGCCAGGTAGCCCGGATCTGGTGGACGTCCACCAGATCC
modifications: five non-nucleotide linker units between 30mer and 13mer; 5mC at end of short arm
B1 showed an activity of over 100 fold stimulation.
